We go through one protein from publication PMC4615758 (RNA Biology, 2014).

This series deals with the molecule itself. The series can be described thus: native gel or EMSA.

B1: recombinant full size LARP6 purified from E. coli (natural protein)
chain: MAQSGGEARPGPKTAVQIRVAIQEAEDVDELEDEEEGAETRGAGDPARYLSPGWGSASEEEPSRGHSGTTASGGENEREDLEQEWKPPDEELIKKLVDQIEFYFSDENLEKDAFLLKHVRRNKLGYVSVKLLTSFKKVKHLTRDWRTTAHALKYSVVLELNEDHRKVRRTTPVPLFPNENLPSKMLLVYDLYLSPKLWALATPQKNGRVQEKVMEHLLKLFGTFGVISSVRILKPGRELPPDIRRISSRYSQVGTQECAIVEFEEVEAAIKAHEFMITESQGKENMKAVLIGMKPPKKKPAKDKNHDEEPTASIHLNKSLNKRVEELQYMGDESSANSSSDPESNPTSPMAGRRHAATNKLSPSGHQNLFLSPNASPCTSPWSSPLAQRKGVSRKSPLAEEGRLNCSTSPEIFRKCMDYSSDSSVTPSGSPWVRRRRQAEMGTQEKSPGTSPLLSRKMQTADGLPVGVLRLPRGPDNTRGFHGHERSRACV
As to B1, the binding result was “binds”.
